Results taken from US4508828A, “Bioassay of parathyroid hormone” (Immuno Nuclear Corporation, priority 1983, dated 1985).
Entries after “also recorded” stand apart in the source; their conditions may differ.

T1: adenylate cyclase-coupled PTH receptors (Rattus norvegicus, UniProt P25961)
T1 construct: 96-well tissue culture plate containing the rat osteogenic sarcoma cells; endogenous in cells; host or cells: rat osteogenic sarcoma cells (obtained by the methods of Partridge et al. 1981 and Majeska et al. 1980)
T1 sequence (P25961 27-591): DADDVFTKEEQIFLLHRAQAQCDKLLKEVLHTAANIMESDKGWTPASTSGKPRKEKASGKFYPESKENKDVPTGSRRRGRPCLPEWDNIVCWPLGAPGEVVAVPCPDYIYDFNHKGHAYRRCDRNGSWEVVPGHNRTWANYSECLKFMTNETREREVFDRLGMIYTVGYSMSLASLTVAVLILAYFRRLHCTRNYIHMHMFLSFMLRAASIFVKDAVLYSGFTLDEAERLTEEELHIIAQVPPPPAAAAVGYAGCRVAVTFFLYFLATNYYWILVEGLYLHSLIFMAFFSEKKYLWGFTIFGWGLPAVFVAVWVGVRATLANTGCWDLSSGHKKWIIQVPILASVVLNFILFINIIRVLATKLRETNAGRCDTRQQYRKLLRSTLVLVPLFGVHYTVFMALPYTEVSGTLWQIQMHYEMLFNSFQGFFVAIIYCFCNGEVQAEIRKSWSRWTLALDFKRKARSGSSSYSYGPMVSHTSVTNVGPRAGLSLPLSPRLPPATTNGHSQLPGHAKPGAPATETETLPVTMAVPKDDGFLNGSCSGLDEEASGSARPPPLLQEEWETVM

B1: PTH^1-84: parathyroid hormone 1-84 standards of the bioassay (bovine PTH 1-84 standard) (protein, UniProt P01268 32-115, looked up)
Parathyroid hormone: AVSEIQFMHNLGKHLSSMERVEWLRKKLQDVHNFVALGASIAYRDGSSQRPRKKEDNVLVESHQKSLGEADKADVDVLIKAKPQ
modifications: Parathyroid hormone

Target: T1, adenylate cyclase-coupled PTH receptors
Assay: PTH bioassay: cAMP generation in rat osteogenic sarcoma cell culture, cAMP by radioimmunoassay
Type: cell-based
Conditions: for bioactivity (cAMP generation): standards of the peptide alone, FIG. 3; for cell culture response, human versus bovine bioactive PTH: hPTH^1-34 compared with bPTH^1-34, FIG. 2; for suppression of cAMP generation by serum in the bioassay medium: FIG. 5
Method: Rat osteogenic sarcoma cells are maintained in culture in Dulbecco's modified Eagle medium ("DMEM"), disclosed in R. Dulbecco, VIROLOGY, 8: 396 (1959), J. Smith, et al., VIROLOGY, 12: 185-196 (1960), Tissue Culture Standards Committee, IN VITRO, 6(2): 93 and available from Gibco, Grand Island, N.Y., containing 1% fetal calf serum, 9% heat-inactivated horse serum, 100 units/ml of penecilin G and 100 μg/ml streptomycin sulfate in sodium sulfate and normal saline solution, available as a concentrate from Gibco, supra. Cells are maintained in this medium in a humidified atmosphere of 5% carbon dioxide and 95% air at 37° C. This rat osteogenic sarcoma cell culture can be obtained according to the methods set forth in N. Partridge, et al., "Functional Properties Of Hormonally Responsive Cultured Normal And Malignant Rat Ostoblastic Cells," ENDOCRINOLOGY, 108: 213-219 (1981), which is incorporated in its entirety herein by reference thereto. This method of obtaining the cell culture is further described in R. Majeska, et al., "Parathyroid Hormone--Responsive Clonal Cell Lines From Rat Osteosarcoma," ENDOCRINOLOGY, 107: 1494-1503 (1980) and R. Majeska, "Maintenance Of Parathyroid Hormone Response in Clonal Rat Osteosarcoma Cell Lines," EXP. CELL RES., 111: 465 (1978), also incorporated in their entirety herein by reference thereto.
Cells are subcultured from confluent monolayers by removing the culture medium, rinsing the cell layer with Dulbecco's phosphate buffered saline, 0.2 g/l KCl, 0.2 g/l KH2 PO4, […], and Na2 HPO4.7H2 O and available from Gibco, supra, and adding trypsin/EDTA, 0.5 g trypsin (1:250) and 0.2 g EDTA-4Na/l Hank's balanced salt solution without CaCl2, MGCL2.6H2 O and MgSO4.7H2 O and available from Gibco, supra, to cover the cell layer. After 1 minute at 20°-25° C., the trypsin/EDTA is removed and the cells are incubated for 2-3 minutes at 37° C. The cells are resuspended in DMEM and one-fifth to one-tenth of the cells are added to a culture flask of equal size.
For use in the bioassay of PTH, the above cell suspension is diluted with 4 volumes of DMEM and 0.1 ml of the suspension is pipetted into each well of a 96-well tissue culture plate available from Becton Dickinson Labware, Oxnard, Calif. The cells are cultured in the same atmosphere as above and are ready for use in the bioassay in 24-28 hours.
15. The dried eluates are dissolved in 0.6 ml of bioassay medium at 20°-25° C., said bioassay medium consisting of 0.1% glucose, 1% BSA, 1 mM methylisobutylxanthine, and 0.005% phenol red in Dulbecco's phosphate buffer saline (pH 7.3 or within range of about 7-7.5).
To perform the bioassay of PTH, the medium is removed from all wells of the 96-well tissue culture plate containing the rat osteogenic sarcoma cells by inversion of the plate and blotting of any remaining drops of medium. The plate is replaced upright and 100 μl of the redissolved N-terminal affinity column eluates are added to each of 4 wells of the plate. The plate is incubated at 20°-25° C. for 30 minutes. At this time, the plate is inverted and blotted to remove all remaining medium, replaced upright and placed on ice.
Each well is washed 3 times by addition of 300 μl of ice cold 0.85% saline followed by inversion and […]. After the third saline wash, 200 μl of ice cold 95% ethyl alcohol containing 0.02M HCl (EtOH/HCl) is added to each well and the plate is incubated at -20° C. for 16-24 hours in order to extract the cAMP from the cells. At the end of this extraction, the EtOH/HCl is removed from each well with a pipet and rinsed with an additional 200 μl of EtOH/HCl. The rinse is combined with the original extract and the solution is dried. An appropriate device for drying the EtOH/HCl samples is a Speed-Vac Concentrator/Evaporator, available from Savant Instruments, Inc., Hicksville, N.Y. The amount of cAMP extracted from the cell layer in each well is quantitated using a radioimmunoassay for cAMP. […]

Molecule	bioactivity (cAMP generation)	cell culture response, human versus bovine bioactive PTH	also measured
(norleucine^8,18)bPTH^3-34 amide	virtual absence of bioactivity	–	antagonism of bPTH^1-84 (inhibition of cAMP generation) (bPTH^1-84 added to the standards, FIG. 4): very strong antagonist; bioactivity (cAMP generation) (listed as hPTH^3-34 amide): not bioactive
bPTH^1-34: bovine parathyroid hormone fragment 1-34	–	respond similarly; also recorded: very close correlation of response	–
hPTH^1-34: human parathyroid hormone fragment 1-34, available from Peninsula Laboratories	–	respond similarly; also recorded: very close correlation of response	–
hPTH^37-84: human parathyroid hormone fragment 37-84 (LGAPLAPRDAGSQRPRKKEDNVLVESHEKSLGEADKADVNVLTKAKSQ; Parathyroid hormone; UniProt P01270 68-115, looked up, fragment)	not bioactive; also recorded: virtual absence of bioactivity	–	–
hPTH^65-84: human parathyroid hormone fragment 65-84 (KSLGEADKADVNVLTKAKSQ; Parathyroid hormone; UniProt P01270 96-115, looked up, fragment)	not bioactive; also recorded: virtual absence of bioactivity	–	–
B1	–	–	suppression of cAMP generation by serum in the bioassay medium (10% serum (fetal calf serum) in bioassay medium): 50 fold; suppression of cAMP generation by serum in the bioassay medium (50% serum (human serum) in bioassay medium): 100 fold
